Laboratory results taken from PMC10164722, “Crystal Structure of Mesaconyl-CoA Hydratase from Methylorubrum extorquens CM4” (Journal of Microbiology and Biotechnology, 2023).

Biological target: the molecule itself
Assay: crystal structure; MeMeaC with malic acid, 1.95 Å, space group P6_(3), one molecule in the asymmetric unit; trimer by crystallographic symmetry (PDBePISA also suggested a trimer)

B1: mesaconyl-CoA hydratase from Methylorubrum extorquens CM4 (enzyme, UniProt C5B1K4 1-348, looked up)
chain: MKTNPGRFFEDFRLGETIRHATPRTVTTGDVALYTALYGPRFAVQSSDAFAKAIGHPASPLDDLLTFHVVFGKTVPDVSLNALANLGYAEGGFHRPVYPGETLSTVSEVIGLKESSNRQTGVVYVRSTGSDASGQTVLSYCRWVLVRKRDPEAKIAEEHVPQLAKVVNPADLAHALPPLDPAAYDNALAGSPHRFADYAVGEKIDHVDGMTVEEAEHQIATRLFQNTAKVHFDAVATKETKFGKRLIYGGHVISLARALSFNGLANAFAIGGINAGRHVAPLFAGDTVYAWSEVLETAELPGRSDIGALRLRTVATKNQSCGAYPDKQGEGYDPSVILDLDYWAFIPR
notes: Mesaconyl-CoA hydratase MeaC (locus Mchl_4075) of Methylorubrum extorquens CM4; subdomains printed as residues 1~147 (MeaC^N), 148~190 (MeaC^Br) and 191~348 (MeaC^C); Surmised: cloning into pET30a by NdeI/XhoI with a reverse primer that has no stop codon would put the vector's His6 tag (after Leu-Glu) at the C-terminus; also called MeMeaC; MeaC; source: E. coli BL21(DE3)-T1R, purified (Ni-NTA, …)
stoichiometry N: 3
